Consider 18 sequences from the supplement of paper PMC12764529.

The nature of series [1]: folding stability dG unfold from chymotrypsin proteolysis; higher = more stable. The method, boiled down: (§1)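 Bayesian fitting of sequencing counts gave K50 for each design. Unfolding free energy followed by setting this against a sequence-predicted unfolded-state K50 and a shared folded-state K50, either per protease or with trypsin and chymotrypsin combined. The designs, under 80 residues and lacking cysteine, were digested in a PA-tagged cDNA display format at 11 threefold-diluted protease concentrations and without protease, and only those with AlphaFold2 dimer inter-PAE above 15 were kept.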

Series [2] can be described thus: folding stability dG unfold from trypsin proteolysis; higher = more stable. The method, boiled down: as §1
The nature of series [3]: folding stability dG unfold (combined trypsin and chymotrypsin); higher = more stable. In short, it runs like this: as §1

± gives the half width of the 95% confidence interval.

In the case of “SAPPDDWKPVTIPILIPFDSVEDAKEWVIELANELAKKHGWRINIDVDIEPVPNRYYIKIPITIYVPKKSAG [r14_626_TrROS]”, the “folding stability dG unfold” value in series [1] was determined as 2.42 ± 0.18 kcal/mol; in series [2], 2.39 ± 0.19 kcal/mol; in series [3], 2.47 ± 0.31 kcal/mol.

For “SAPPKTRTREIEIRFDDYYVRIKITWTKDGNLKLDIEFQGPNPVMREQIKDFLEELNPDFEITDIEVYRSAG [r14_611_TrROS]”, the “folding stability dG unfold” value in series [1] was 2.67 ± 0.057 kcal/mol; in series [2], 2.13 ± 0.14 kcal/mol; in series [3] it was 2.38 ± 0.3 kcal/mol.

Turning to “SAPPYYIVIKFKMELPPPTPEDAKEYDPDGEVRRTTVEMTFVIPIPPEDLEDLKDFMQSLGIEEIEIFKSAG [r14_509_TrROS]”, the “folding stability dG unfold” value turned out to be 2.75 ± 0.032 kcal/mol in series [1], 2.05 ± 0.087 kcal/mol in series [2] and 2.56 ± 0.15 kcal/mol in series [3].

“SAPQIVEVKEYDPVSKTYTILAETPEGPLTVPVPAGGDTTVEEAIEQVKEYFEKTLPPGVELEIEKILLSAG [r14_422_JUSTAS]”: the “folding stability dG unfold” value stood at 0.271 ± 0.14 kcal/mol in series [1], 0.355 ± 0.08 kcal/mol in series [2] and 0.418 ± 0.093 kcal/mol in series [3].

For the sequence “SAPWRITDIDVKRHPNGRVRVTIRFPHPNMSVEIWLDKDGELDVEVSPDMRNHPPWFQNMIRDVAKELLSAG [r14_555_TrROS]”, the “folding stability dG unfold” value in series [1] amounted to 1.33 ± 0.11 kcal/mol; in series [2], 2.77 ± 0.1 kcal/mol; in series [3] it was 2.15 ± 0.1 kcal/mol.

Regarding “SARIRIMVPPDFIMVRTPKGKMRMVDDPEEIEEIIKDILPVPIEIEPLPPNSPKFQKMMEMMMREQNGPSAG [r14_235_TrROS]”, the “folding stability dG unfold” value was 0.158 ± 0.23 kcal/mol in series [1], -0.264 ± 0.48 kcal/mol in series [2] and 0.0355 ± 0.18 kcal/mol in series [3].

As for “SASFTLTPVTVTLSPDPETGAILAPVLATAGDHPVFGLAYVDPLDPSRAYYRIYYPPSDLVEYAVVPLPSAG [r14_178_TrMRF]”, the “folding stability dG unfold” value in series [1] is 0.847 ± 0.15 kcal/mol; in series [2], 0.469 ± 0.066 kcal/mol; in series [3] it was 0.722 ± 0.097 kcal/mol.

For the sequence “SASLEELLAELPFDAEVETKDEEVVVKITNPENPDPNVSYTFNIPSSSGVPITVNVTEVEGGTKSVKALSAG [r14_401_JUSTAS]”, the results for the “folding stability dG unfold” value in series [1], in series [2] and in series [3] were -0.108 ± 0.24 kcal/mol, -0.448 ± 0.15 kcal/mol and -0.172 ± 0.21 kcal/mol, respectively.

Consider “SASMEAALAKVEEITAEPSWELVGVSPEGVFTIRNPETGTEIVIEIKVTSDGKGYKVTIPSKTVVPAPESAG [r14_20_JUSTAS]”, for which the figures for the “folding stability dG unfold” value in series [1], in series [2] and in series [3] were 1.3 ± 0.13 kcal/mol, 1.45 ± 0.096 kcal/mol and 1.38 ± 0.12 kcal/mol, respectively.

For the sequence “SASNKPRTIEVPIMIPPDDLKEHSPEEFIDWIANELGLPPGKDIKIDVDIEPFEHDGRPYYIIPARIQVSAG [r14_334_TrROS]”, the “folding stability dG unfold” value in series [1] is -0.294 ± 0.32 kcal/mol; in series [2], -0.362 ± 0.2 kcal/mol; in series [3], -0.231 ± 0.22 kcal/mol.

On to “SASPALELAKEIAEKIEPLFPDISPVEVTVTPRGSTALGTIKFKRPDGKELVAKMIVSAGGDPVEIILLSAG [r14_719_JUSTAS]”, for which the “folding stability dG unfold” value in series [1] is 1.26 ± 0.25 kcal/mol; in series [2], 1.56 ± 0.14 kcal/mol; in series [3], 1.51 ± 0.21 kcal/mol.

With “SASPEDTVTTTETEPTTISLGTASIPPDLEVLSVTVTTTTTTTYKVEPPGVPVKLSSTTTTTTTVTLKRTSA [r9_747_JUSTAS]”, the “folding stability dG unfold” value in series [1] was determined as 2.45 ± 0.1 kcal/mol; in series [2], 2.79 ± 0.3 kcal/mol; in series [3] it was 2.69 ± 0.38 kcal/mol.

Regarding “SASPELRKLAEEAAERLVKELGVEKLEFTFTAPVLRPVYTYDPGGNKTPRLEEEIVTYSVTAVVPPEAASAG [r14_232_TrMRF]”, the “folding stability dG unfold” value in series [1] is -0.21 ± 0.31 kcal/mol; in series [2], -0.0655 ± 0.14 kcal/mol; in series [3], -0.0957 ± 0.2 kcal/mol.

On to “SASPPRRFMIKVTYPDGKTTLSYGDDPEQTRAALEAQIAEEHPGNYTIEYTELSPDEWASPEKAEALLSSAG [r14_900_JUSTAS]”, for which the “folding stability dG unfold” value in series [1] worked out at 1.71 ± 0.073 kcal/mol; in series [2], 2.27 ± 0.034 kcal/mol; in series [3], 2.01 ± 0.078 kcal/mol.

“SASPSETTTYTVELTSTDPSLTPEDLAERAREEFEAALPPGTRVEVEVVSVTPIPETGTTRYTIRITVRRSA [r9_706_JUSTAS]”: the “folding stability dG unfold” value in series [1] turned out to be 4.26 ± 0.046 kcal/mol; in series [2] it was 5.18 ± 0.1 kcal/mol; in series [3], 4.55 ± 0.027 kcal/mol.

With “SASVEEVIEEAKELAKKLGAYVIVTVYKNNKKIGTYEYPSPSKNSPPTSITIESPDPNYKVKITIYPPGSAG [r14_728_JUSTAS]”, the “folding stability dG unfold” value in series [1] was 3.12 ± 0.032 kcal/mol; in series [2], 2.53 ± 0.062 kcal/mol; in series [3] it was 2.94 ± 0.092 kcal/mol.

Take “SATETLTVVETRTVRDPAVPGTTTTETRVTEVTRPAPPPPPLSAEELARALAEAGLLERTDDGELKVVLSAG [r14_582_TrROS_Hall]”: the “folding stability dG unfold” value in series [1] was -0.276 ± 0.11 kcal/mol; in series [2], -0.559 ± 0.25 kcal/mol; in series [3] it was -0.567 ± 0.43 kcal/mol.

With “SATFKPGETVTIDELTIDGATITKVTVTVNADGTITITATIKPAPPPPPPPEVVRNPETGKTYPAGEVKDSA [r9_603_TrROS_Hall]”, the “folding stability dG unfold” value is 0.615 ± 0.087 kcal/mol in series [1], 1.87 ± 0.19 kcal/mol in series [2] and 1.34 ± 0.23 kcal/mol in series [3].
